# From article doi:10.1101/2021.12.16.472899 (bioRxiv, 2021)
# T1: PnsB1 (Arabidopsis thaliana (endogenous in the …, UniProt Q9S9N6 45-461))
# T1 sequence (looked up): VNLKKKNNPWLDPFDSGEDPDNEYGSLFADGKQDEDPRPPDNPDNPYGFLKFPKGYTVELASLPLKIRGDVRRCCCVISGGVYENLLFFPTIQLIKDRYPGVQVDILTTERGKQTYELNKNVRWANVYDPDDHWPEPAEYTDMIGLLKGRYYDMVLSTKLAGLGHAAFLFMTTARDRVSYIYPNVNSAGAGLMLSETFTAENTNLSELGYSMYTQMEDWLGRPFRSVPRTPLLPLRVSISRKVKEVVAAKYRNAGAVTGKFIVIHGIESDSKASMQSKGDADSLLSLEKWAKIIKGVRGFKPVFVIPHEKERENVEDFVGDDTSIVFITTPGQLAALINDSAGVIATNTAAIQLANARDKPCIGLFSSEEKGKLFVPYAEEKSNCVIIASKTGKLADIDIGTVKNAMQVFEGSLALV
# T2: NdhD (Arabidopsis thaliana (endogenous in the …, UniProt P26288 1-500))
# T2 sequence (looked up): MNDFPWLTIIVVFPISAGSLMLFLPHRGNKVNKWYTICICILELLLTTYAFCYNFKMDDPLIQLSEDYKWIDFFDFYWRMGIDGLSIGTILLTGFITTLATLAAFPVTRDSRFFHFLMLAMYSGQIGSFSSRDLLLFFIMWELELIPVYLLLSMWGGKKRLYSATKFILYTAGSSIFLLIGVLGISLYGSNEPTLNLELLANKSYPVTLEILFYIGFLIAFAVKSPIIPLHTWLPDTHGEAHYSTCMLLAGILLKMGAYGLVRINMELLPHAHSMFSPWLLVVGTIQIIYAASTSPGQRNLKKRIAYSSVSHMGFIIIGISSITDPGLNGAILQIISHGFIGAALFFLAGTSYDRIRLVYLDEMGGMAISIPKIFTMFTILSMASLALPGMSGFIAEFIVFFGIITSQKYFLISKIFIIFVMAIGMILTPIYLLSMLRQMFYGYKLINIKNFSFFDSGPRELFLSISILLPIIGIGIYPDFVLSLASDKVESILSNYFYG
# T3: Lhca6 (Arabidopsis thaliana (endogenous in the …, UniProt Q8LCQ4 34-270))
# T3 sequence (looked up): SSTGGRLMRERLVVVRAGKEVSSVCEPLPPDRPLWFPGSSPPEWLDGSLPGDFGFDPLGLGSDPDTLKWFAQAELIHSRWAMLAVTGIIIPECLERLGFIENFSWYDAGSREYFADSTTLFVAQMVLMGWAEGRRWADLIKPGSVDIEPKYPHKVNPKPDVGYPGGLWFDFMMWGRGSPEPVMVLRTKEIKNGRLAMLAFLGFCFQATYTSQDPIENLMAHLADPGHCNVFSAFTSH
# T4: PnsL1 (Arabidopsis thaliana (endogenous in the …, UniProt O80634 81-238))
# T4 sequence (looked up): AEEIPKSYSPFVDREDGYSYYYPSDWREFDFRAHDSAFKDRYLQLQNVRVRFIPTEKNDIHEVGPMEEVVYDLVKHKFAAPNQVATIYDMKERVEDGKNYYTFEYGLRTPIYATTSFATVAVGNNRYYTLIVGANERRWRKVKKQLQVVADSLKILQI
# T5: PnsL2 (Arabidopsis thaliana (endogenous in the …, UniProt Q9XI73 69-190))
# T5 sequence (looked up): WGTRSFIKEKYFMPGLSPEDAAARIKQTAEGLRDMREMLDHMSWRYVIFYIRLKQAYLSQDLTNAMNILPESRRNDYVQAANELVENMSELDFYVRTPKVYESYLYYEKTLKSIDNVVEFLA
# T6: Lhca5 (Arabidopsis thaliana (endogenous in the …, UniProt Q9C639 33-256))
# T6 sequence (looked up): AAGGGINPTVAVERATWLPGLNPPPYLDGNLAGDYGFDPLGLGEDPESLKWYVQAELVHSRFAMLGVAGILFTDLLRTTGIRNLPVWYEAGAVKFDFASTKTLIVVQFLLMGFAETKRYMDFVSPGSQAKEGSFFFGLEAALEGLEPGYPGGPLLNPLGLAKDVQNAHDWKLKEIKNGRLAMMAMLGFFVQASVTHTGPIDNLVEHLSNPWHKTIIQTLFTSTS
# B1: PnsB5 (natural protein, UniProt Q9FG89 49-212, looked up)
# chain: AAGLSQIEPDINEDPIGQFETNSIEMEDFKYGYYDGAHTYYEGEVQKGTFWGAIADDIAAVDQTNGFQGLISCMFLPAIALGMYFDAPGEYLFIGAALFTVVFCIIEMDKPDQPHNFEPQIYKLERGARDKLINDYNTMSIWDFNDKYGDVWDFTIEKDDIATR
# B2: PnsB4 (natural protein, UniProt Q8RXS1 25-175, looked up)
# chain: QNSGPNHGYWLSKNVNEKRERNLMRGSLCVRKALPHDLPLMAVMVQQIEGMRDIITEKHVWHLSDKAIKNVYMFYIMFTCWGCLYFGSAKDPFYDSEEYRGDGGDGTGYWVYETQEDIEEKARAELWREELIEEIEQKVGGLRELEEAVTK
# Tests used:
# Assay in all cases: cryo-EM structure
# PnsB1 = molecular target: T1, PnsB1
# NdhD = molecular target: T2, NdhD
# Lhca6 = molecular target: T3, Lhca6
# PnsL1 = molecular target: T4, PnsL1
# PnsL2 = molecular target: T5, PnsL2
# PnsB5 = molecular target: B1
# Lhca5 = molecular target: T6, Lhca5
# PnsB4 = molecular target: B2
# NdhF = NdhF (Arabidopsis thaliana (endogenous in the …, UniProt P56752 1-746))
# Sequence of NdhF (Arabidopsis thaliana (P56752 whole entry): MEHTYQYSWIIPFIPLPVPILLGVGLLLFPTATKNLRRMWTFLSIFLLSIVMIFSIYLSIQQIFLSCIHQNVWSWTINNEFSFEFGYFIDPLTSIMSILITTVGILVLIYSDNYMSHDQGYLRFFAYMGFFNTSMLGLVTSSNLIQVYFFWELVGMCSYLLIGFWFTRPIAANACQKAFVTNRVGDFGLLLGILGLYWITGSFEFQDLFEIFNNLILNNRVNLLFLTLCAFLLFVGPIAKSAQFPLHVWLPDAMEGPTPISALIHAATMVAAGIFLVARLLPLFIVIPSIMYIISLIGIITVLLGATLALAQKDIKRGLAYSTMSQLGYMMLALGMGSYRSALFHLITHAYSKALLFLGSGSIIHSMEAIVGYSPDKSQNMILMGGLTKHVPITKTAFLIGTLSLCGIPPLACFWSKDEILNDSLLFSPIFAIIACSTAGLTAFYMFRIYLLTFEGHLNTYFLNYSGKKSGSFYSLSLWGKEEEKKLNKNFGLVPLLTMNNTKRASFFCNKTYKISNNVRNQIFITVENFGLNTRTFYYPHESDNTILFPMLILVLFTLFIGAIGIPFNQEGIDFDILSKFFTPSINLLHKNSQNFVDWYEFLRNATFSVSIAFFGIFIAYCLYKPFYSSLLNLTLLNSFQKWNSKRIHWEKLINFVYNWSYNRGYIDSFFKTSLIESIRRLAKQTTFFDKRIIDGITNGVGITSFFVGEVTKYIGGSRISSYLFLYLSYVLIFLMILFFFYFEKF
binding result (PnsB1),binding result (NdhD),binding result (PnsL1),binding result (PnsL2),Binder,other results
binds,binds,–,–,B1,binding result (Lhca6): binds
–,–,binds,binds,"NdhC (natural protein, UniProt P56751 1-120, looked up) MFLLYEYDIFWAFLLISSAIPVLAFLISGVLSPIRKGPEKLSSYESGIEPIGDAWLQFRIRYYMFALVFVVFDVETVFLYPWAMSFDVLGVSAFIEAFIFVLILILGLVYAWRKGALEWS",–
binds,binds,–,–,B2,binding result (PnsB5): binds
–,–,–,–,"Lhca1 (natural protein, UniProt Q01667 36-241, looked up) AGNVGRIRMAAHWMPGEPRPAYLDGSAPGDFGFDPLGLGEVPANLERYKESELIHCRWAMLAVPGILVPEALGYGNWVKAQEWAALPGGQATYLGNPVPWGTLPTILAIEFLAIAFVEHQRSMEKDPEKKKYPGGAFDPLGYSKDPKKLEELKVKEIKNGRLALLAFVGFCVQQSAYPGTGPLENLATHLADPWHNNIGDIVIPFN",binding result (Lhca5): binds
–,–,binds,binds,"NdhE (natural protein, UniProt P26289 1-101, looked up) MILEHVLVLSAYLFLIGLYGLITSRNMVRALMCLELILNAVNMNFVTFSDFFDNSQLKGEIFCIFVIAIAAAEAAIGLAIVSSIYRNRKSIRINQSTLLNK",–
–,binds,–,–,PnsL3 (natural protein) not shown,binding result (PnsB4): binds; binding result (NdhF): binds
